In patent US20220073643A1:
Substitutions are numbered along the chain they refer to.

B1: 392C2F10 (antibody, V domains shown)
VH: EVQLQQSGPELVKPGASMKISCKASGYSFTGYTMNWVKQSLGKNLEWIGLINPFNGGTTYNQKFKGKATLTVDKSSSTAYMELLSLTSDDSAVYYCTRGDYWGQGTTLTVSS
VL: DIVMTQSPSSLTVTAGEKVTMSCKSSQSLLNSGNQKNYLTWYQQKPGQPPKLLIYWASTRESGVPDRFAGSGSGTDFTLTISSVQAEDLAVYYCQSDYSYPTFGAGTKLELK
B2: 405G8F11 (antibody, V domains shown)
VH: DVQLVESGGGLVQPGGSRKLSCVTSGFTFSSFGMHWVRQAPEKGLEWVAYISSGSSPIYYADTVKGRFTISRDNPKNTLFLQMSSLRSEDTAMYFCARFYYGNSFAYWGQGTLVTVSA
VL: DIVMTQSPSSLTVTAGEKVTMNCKSSQSLLNSGNQKNYLTWYQQKLGQPPKLLMYWASTRESGVPDRFTGSGSGTDFTLTISSVQAEDLAVYFCQSAFSYPLTFGAGTKLELK
B3: 407A8G10 (antibody, V domains shown)
VH: B2 VH with V23A, T24A, S31G, V37I, A40T, S56R, S84T, A106D, Y107H
VL: DIVMTQSPSFLTVTAGEKVTMSCRSSQSLLNSGNQRNYLTWYQQKPGQPPKLLIYWASTRESGVPDRFTGSGSGTDFALTISSVQAEDLALYYCQNAYSFPLTFGAGTKLELK
B4: 196A12B10 (antibody, V domains shown)
VH: QIQWVQSGPELKKPRETVKISCKASGYTFTDYSMHWVKQAPGKGLKWMGWINSETGEATYADDFRGRFALSLETSATTAFLQINSLKNEDTGTYFCARFYYGNSFASWGQGTTLTVSS
VL: DIVMTQFPSSLTVTAGEKVTMTCKSSQSLLNGGNQKNYLTWYQQKPGLPPKLLIYWASTRESGVPDRFTGSGSGTEFTLTISSVQAEDLAVYYCQNNYYFPLTFGAGTKLELK
B5: 406G3C4 (antibody, V domains shown)
VH: EIQLQQSGPELMKPGASVRISCKASGYSFISYYIYWVKQSHGKGLEWIGYIDPFNGNTNYNQKFKGKATLTVDRSSSTAYIHLNSLTSEDSAVYYCAIVNGYGRGAMDYWGQGTSVTVSS
VL: QIVLTQSPAIMSASPGEKVTMTCSASSSISYMHWYQQKSGTSPKRWIYDTSKLASGVPARFSGSGSGTSYSLTISSMEAEDAATYYCQQWSSNPLTFGDGTKLELK
B6: 370E2B12C3 (antibody, V domains shown)
VH: QVQLKESGPGLVAPSQSLSITCTVSGFSLTTYGVHWVRQPPGKGLEWLGVIWAGGSTNYNSALMSRVSINKDNSKSQVFIKMNSLQADDTALYYCARAAYYGNGLDYWGQGTTLTVSS
VL: DIVMTQSPSSLTVTAGEKVTMSCKSSQTLLNSGNQKNYLTWYQQKPGQPPKLLIYWASTGESGVPDRFTGSGSGTDFTLTISSVQAEDLAVYFCQNAYFYPFTFGGGTKLEIK
B7: 391F1G2 (antibody, V domains shown)
VH: B2 VH with V23A, T24A, S84T, F99I
VL: B6 VL with T20A, I54L, G60R, F93Y, F99Y, F102L, G106S, I112L
B8: 393C2C5 (antibody, V domains shown)
VH: B2 VH with V23A, T24A, S84T, R98T
VL: B6 VL with P46S, G60R, F93Y, F99S, F102V, G106S, L110V, I112L
B9: 407E11H8 (antibody, V domains shown)
VH: DVQLVESGGGLVQPGGSRKLSCAASGFTFSDFGMHWIRQTPEKGLEWVAYISSGSRPIYYADTVKGRFTISRDNPKNTLFLQMTSLRSEDTAMYFCVRFYFGNSFDHWGQGTLVTVSA
VL: B3 VL with S22T, S28N, Q35L, R36K, Y55S, A78T, A86P
B10: 265E6G2 (antibody, V domains shown)
VH: QAYLQQSGAELVRSGASVKMSCKASGYTFTSYNMHWVKQTPGQGLEWIGYIYPGNGGTNYNQKFKGKATLTADTSSSTAYMQISSLTSEDSAVYFCARDYYGNSFAYWGQGTLVTVSA
VL: DLVMTQSPSSLTVTAGEKVTMSCKSSQSLLNSGNQKNYLTWYQQKPGQPPKLLIYWASTRESGVPDRFTGSGSGTDFTLTISNIQAEDLAVYYCQNDYSYPLPFGAGTKLELR
B11: 406E1H7 (antibody, V domains shown)
VH: B9 VH with D31G, K65Q, V97A, F101Y, A118S
VL: B3 VL with R24K, R36K, A78T
B12: 198F10B8 (antibody, V domains shown)
VH: QAYLQQSGAELVRSGASVRMSCKASGYTFSSYNMHWVKQTPGQGLEWIGYIYPGNGGTNYNQKFKDKATLTADTSSSTAFIQISSLTSEDSAVYFCLTGRGFAYWGQGTLVTVSA
VL: B10 VL with L2I, K18R, L30F, W56R, N83S, I84V, P103T, A106V, R113K
B13: 395B3C11 (antibody, V domains shown)
VH: B9 VH with D31G, K65Q, V97A, F101Y, A118S
VL: B3 VL with R24K, R36K, A78T
B14: 273F3D4 (antibody, V domains shown)
VH: QVQLKESGPGLVAPSQSLSITCTVSGFALTTYGVSWVRQPPGKGLEWLGVIWGDGSTHYHSALISRLSIRKDNSKSQVFLKLNSLQTDDTATYYCAKPGRGNAMDYWGQGTSVTVSS
VL: B10 VL with L2I, T5S, P49S, N83S, I84M, S99I, P103T, K109M, R113K
B15: 286C7F11 (antibody, V domains shown)
VH: QVQLKESGPGLVAPSQSLSITCTVSGFSLTDYGVSWIRQPPGKGLEWLGVIWNRGNTYYNSALKSRLSISKDNSKSQVFLRMNSLQTDDTAMYYCAKHDFLRFLDYWGQGTTLTVSS
VL: B10 VL with L2V, L52I, T78S, S82T, N83S, I84V, Q95L, S99Y, P103T, R113K
B16: 267B2C5 (antibody, V domains shown)
VH: B14 VH with S19A, A28S, L82V, A96G
VL: B6 VL with T28S, P49S, G60R, F93Y, A97D, F99I, F102L, K109T, I112L
B17: 406F11G8 (antibody, V domains shown)
VH: B2 VH with V23A, T24A, P75S, S84T, F99I
VL: B6 VL with T20A, G60R, F93Y, F99Y, F102L, G106S, I112L
B18: 279E8B8 (antibody, V domains shown)
VH: B10 VH with M20I, T30A, Y32H, N59K, K65T, T71S, M81L, Y101F, A106V
VL: DIVMTQSPSSLTEKAGEKVSMRCKSSQSLLNSGNQKNYLTWYQQKPGQPPKLLIYWASTRESGVPDRFTGSGSGTDFTLTISSVQADDLAVYYCQNDYMYPFTFGAGTKLELK
B19: 267H5F12 (antibody, V domains shown)
VH: B10 VH with Y32H, Y52S, G57Y, K65R, A97T, A106T
VL: B18 VL with K18R, R22S, L30F, D76E, D87E, D97N, M99W, Y100F
B20: 275B2G2 (antibody, V domains shown)
VH: EVMLVESGGGLVKPGGSLKLSCAASGFTFRDYTMSWVRQTPEKRLEWVATSIIGGTYTYYPDSVKGRFTISRDNVKNTLYLQMSSLRSEDTAMYYCSRLGRGNAMDYWGQGTSVTVSS
VL: B6 VL with T28S, G60R, F93Y, A97D, F99S, G106S
B21: 266B11F7 (antibody, V domains shown)
VH: B14 VH with L4M, A28S, S35T, H58N, I64T, S68R, R70S, N73K, N83S, M104L
VL: B4 VL with F7S, T22R, G32S, L48Q, I54V, E76D, I81V, N97D, Y99I
B22: 292D9C7 (antibody, V domains shown)
VH: B15 VH with N53G, R54G, T57A, R81K, Q86R, H98N, D99G, F100L, F103Y, T111S
VL: B10 VL with L2T, T75R, N83S, I84V, A86V, V91I, S99Y, P103T, L110V, R113K
B23: 392A11C8 (antibody, V domains shown)
VH: B9 VH with D31G, V97A, F101Y
VL: B3 VL with R36K, A78T
B24: 391H11H3 (antibody, V domains shown)
VH: B9 VH with D31G, K65Q, V97A, F101Y, A118S
VL: B3 VL with R24K, R36K, A78T
B25: 280F3B6 (antibody, V domains shown)
VH: B10 VH with Y32H, A97T
VL: B18 VL with K18R, R22S, L30F, D87E, M99W
B26: 273C10E5 (antibody, V domains shown)
VH: QVQLQQSGAELVKPGASVKLSCKASGYTFTSFGINWLRQRPEQGLEWIGWIFPGDGNSKYNENFKGKATLTTDKSSSTAYMQVTRLTSEDSAVYFCARFYYGNSFANWGQGTLVTVSA
VL: B18 VL with E13V, K14T, S20T, R22S, S58A, T69A, D87E, M99F
B27: 275H9A2 (antibody, V domains shown)
VH: B10 VH with K23R, T28S, Y32H, T58S, N59Y, T69I, A97T, A106V
VL: B18 VL with I2V, A15T, R22S, V84L, A86T, D87E, D97N, Y98F, M99R
B28: 277F1F8 (antibody, V domains shown)
VH: B10 VH with A9P, Y32H, Y52N, T58N, Y107F
VL: B18 VL with K14T, R22S, D87E, M99R, Y100F
B29: 394C2G5 (antibody, V domains shown)
VH: B9 VH with D31G, I51V, V97A, F101Y
VL: B3 VL with R24K, R36K, A78T, S82N, S83N, K113T

molecular target: Claudin18.2-His protein (human); test: indirect ELISA on coated Claudin18.2-His

| Binder | EC50 [µg/mL] |
| --- | --- |
| B1 | 0.0153 |
| B2 | 0.00199 |
| B3 | 0.00554 |
| B4 | 0.0192 |
| B5 | 0.00918 |
| B6 | 0.0156 |
| B7 | 0.00836 |
| B8 | 0.0504 |
| B9 | 0.017 |
| B10 | 0.0183 |
| B11 | 0.00955 |
| B12 | 0.0315 |
| B13 | 0.00443 |
| B14 | 0.0233 |
| B15 | 0.0155 |
| B16 | 0.0113 |
| B17 | 0.016 |
| B18 | 0.0201 |
| B19 | 0.00822 |
| B20 | 0.028 |
| B21 | 0.0168 |
| B22 | 0.0232 |
| B23 | 0.021 |
| B24 | 0.0162 |
| B25 | 0.012 |
| B26 | 0.0201 |
| B27 | 0.0245 |
| B28 | 0.0158 |
| B29 | 0.00846 |
